Source: paper PMC3696110, “Hsp70 Oligomerization Is Mediated by an Interaction between the Interdomain Linker and the Substrate-Binding Domain” (PLoS ONE, 2013)
Values joined by “and” are separate entries in the source; they are usually repeats but may differ in a detail not shown here. Equal values may be shown once.

Columns and labels:
Format in all cases: physicochemical, human
[1] = Analytical SEC relative populations of oligomeric forms; details: for Dimer population / Monomer population / Total oligomer population: Superdex 75, 4 °C, 50 mM Tris pH 7.4, 150 mM KCl
Description: (§1) Analytical SEC was performed at 4 °C using a Superdex 75 10/300 GL column (GE Healthcare LifeSciences, Little Chalfont, U.K.), which had previously been calibrated using a mixture of standard proteins (Gel Filtration LMW Calibration Kit; GE Healthcare LifeSciences, Little Chalfont, U.K.). Typically, samples of the various constructs contained 70 µM of protein in 50 mM Tris buffer at pH 7.4, with 150 mM KCl, 5 mM MgCl2 and were incubated for 15 min (unless otherwise specified) at room temperature before being loaded onto the column for analysis. To evaluate the reversibility of the oligomerization process, the different elution peaks obtained for each protein variant were subsequently analyzed after concentrating the different fractions using AmiconUltra-0.5, Ultracel-3 Membrane, 3 kDa (Millipore, Bedford, MA, USA). A similar analysis was also performed at 6 µM concentration for all the protein variants to allow for a direct comparison between the results obtained by SEC and MS experiments.
The influence of substrate binding on the oligomerization properties of all the variants was examined by using the well-characterized Hsp70 substrate, the NR peptide (NRLLLTG, Genemed Synthesis Inc., San Antonio, TX, USA). A 14-fold excess of the peptide was added in each case to a fresh protein sample, incubated for 1 h at room temperature, unless otherwise specified, and then loaded onto the Superdex 75 10/300 GL column for analysis. The relative quantities of the different protein species were estimated by analysing the chromatographic profile using a Gaussian function for each elution peak (OriginPro 8, Originlab, Northampton, MA, USA) and measuring the relative area under each peak.

[2] = Secondary structure content from far-UV CD; details: K2D software; 20 µM protein, 7 mM Tris pH 7.4, 170 mM KCl, 5 mM MgCl2; 25 °C
Description: Far-UV CD spectra for all protein variants were recorded using a Jasco J-810 spectropolarimeter equipped with a Peltier holder, using a 0.1 cm path length cuvette. Typically, samples contained 20 µM protein in 7 mM Tris buffer at pH 7.4, containing 170 mM KCl and 5 mM MgCl2. The far-UV CD spectra of all the variants in their native, thermally denatured and refolded states were recorded from 198 to 250 nm, and the spectrum of the buffer was systematically subtracted from the spectra of all protein samples. The secondary structure content was estimated from the far-UV CD spectrum for each protein variant using K2D software.

[3] = nESI-MS relative populations of oligomeric forms; details: 150 mM ammonium acetate
Description: Prior to MS analysis, samples were buffer exchanged into 150 mM ammonium acetate, pH 7.4, using Micro Bio-spin 6 columns (Bio-Rad, Digilab Division, Cambridge, MA, USA). For all the experiments protein concentrations ranging from 6 to 18 µM were used. In the case of the substrate binding experiments, proteins were analyzed in the presence of a 1: 1 molar ratio of the NR peptide; this substrate concentration, lower than in the SEC experiments, was chosen to ensure adequate resolution of the various charge state series, which is critical for unambiguous assignment of substrate-bound states. Due to suppression effects during nESI ionization, a relatively limited set of molar ratios could be investigated by in this way.
nESI-MS spectra were obtained according to a previously published protocol on an orthogonal time-of-flight mass spectrometer with a Z-spray source (LCT, Waters, Manchester, UK) in positive ion mode using the following parameters: capillary voltage, 1500 V; sample cone voltage, 120 V (unless otherwise specified); extraction cone voltage, 1V; and ion transfer stage pressure, 8.8 mbar. Spectra were calibrated externally using a 33 mg/ml solution of cesium iodide. Data were acquired and processed with MassLynx software (Waters, Manchester, UK), and are shown with minimal smoothing and without background subtraction. The relative abundances of the different oligomeric states were estimated from the intensities of the most abundant charge states for each construct and are expressed as a percentage of the total intensity.

[4] = SEC/DLS of oligomeric species; details: SEC, 20 µM SBD641
Description: as §1, with “A similar analysis was also performed at 6 µM concentration for all the protein variants to allow for a direct comparison between the results obtained by SEC and MS experiments.” left out
Dynamic light scattering. Representative size distributions of SBD641 at different protein concentrations in Tris 50 mM, pH 7.4, 150 mM KCl, 5 mM MgCl2 were recorded at 25 °C on the Zetasizer Nano ZS instrument (Malvern Instruments Ltd.) at 633 nm after 1 h of incubation at room temperature. […] Some samples were analyzed after 1 h and 4 h incubation at room temperature and the same intensity size distributions were obtained. The samples were centrifuged for 15 min at 13200 rpm to remove dust particles and the scattered light was detected at an angle of 173°. […]

[5] = Tryptophan (W580) fluorescence emission; details: W580, excitation 295 nm
Description: Steady-state tryptophan fluorescence emission spectra of native, thermally denatured and refolded proteins were recorded from 300 to 400 nm, selectively exciting the only tryptophan residue in the SBD (W580) at 295 nm, using a Cary Eclipse spectrofluorimeter (Varian, Palo Alto, CA, USA). Excitation and emission band-passes were set to 5 nm each.

[6] = 70 µM protein, 5 mM MgCl2, 15 min at room temperature, estimated error 3.5% (SD of 3-4 independent experiments)
[7] = 6-15 µM protein, 5 mM MgCl2, estimated error 3.5% (SD of 3-4 independent experiments)
[8] = 6-15 µM protein, pH 7.4, estimated error 5% (SD of 3-4 independent experiments)

In the case of “SBD641: truncated human Hsp70 (384-641), full-length SBD with interdomain linker”, the Dimer population [1, 6] is reported as 55%, the Monomer population [1, 6] is reported as 23% and the Total oligomer population [1, 6] is reported as 77%. For the same substance, the Dimer population [1, 7] was 44%, the Monomer population [1, 7] was 37% and the Total oligomer population [1, 7] was > 50% and 63%. The “Monomeric fraction, native protein” value ([1]; native SBD641, comparison with refolded) was 37%, the “Monomeric fraction, refolded protein” value ([1]; refolded after thermal denaturation) was 71% and the “Random-coil content estimated from far-UV CD” value [2] was 49%. The “α-helix content estimated from far-UV CD” value [2] was 33%, the “β-sheet content estimated from far-UV CD” value [2] was 18% and the Dimer population [3, 8] was 40%. For the same substance, the Monomer population [3, 8] was 46%, the Total oligomer population [3, 8] was > 50% and 54% and the Trimer population [3, 8] was 12%. The Tetramer population ([3]; low μM protein, pH 7.4) was 2%, the “Oligomer fraction, no NR peptide” value [4] was “ca. 0.7” and the “Wavelength of fluorescence emission maximum, native” value [5] was 340 nm. The “Wavelength of fluorescence emission maximum, refolded” value [5] was 345 nm and the “Wavelength of fluorescence emission maximum, thermally denatured” value [5] was 350 nm.
